The series is described as follows: total protein half-life in vivo (active degradation + dilution); higher = more stable protein.
[1] abbreviates: E. coli NCM3722 delta-clpP delta-lon delta-hslV, growth: N-lim chemostat, doubling time 6 h.
[2] abbreviates: E. coli NCM3722 delta-hslV, growth: N-lim chemostat, doubling time 6 h.
Setting [3] is: E. coli NCM3722 delta-smpB, growth: N-lim chemostat, doubling time 6 h.
Where [4] appears, read: wild type E. coli NCM3722, growth: C-lim chemostat, doubling time 3 h.
The mark [5] stands for this setting: wild type E. coli NCM3722, growth: C-lim chemostat, doubling time 6 h.
Setting [6] is: wild type E. coli NCM3722, growth: C-lim chemostat, doubling time 12 h.
Where [7] appears, read: wild type E. coli NCM3722, growth: N-lim chemostat, doubling time 6 h.
Where [8] appears, read: wild type E. coli NCM3722, growth: N-lim chemostat, doubling time 12 h.
Setting [9] is: wild type E. coli NCM3722, growth: P-lim chemostat, doubling time 6 h.
Setting [10] is: wild type E. coli NCM3722, growth: P-lim chemostat, doubling time 12 h.
The mark [11] stands for this setting: E. coli NCM3722 delta-clpP, growth: N-lim chemostat, doubling time 6 h.
Where [12] appears, read: E. coli NCM3722 delta-lon, growth: N-lim chemostat, doubling time 6 h.

± gives the standard deviation of the averaged measurements.

On to “MNNMFEPPKNYNEMLPKLHKATFLNTLIYCILLVIYEYIPLITLPTKYVPPIKDHESFINWALSFGILPCAFAIFAYLISGALDLHNNAAKLLRVRYLWDKHLIIKPLSRRAGVNRKLNKDEAHNVMSNLYYPEVRKIEDKHYIELFWNKVYYFWIFFEFSIIALISFLIIFFCKQMDIFHVEGSLLSLFFFVILSFSVSGIIFALTVKPRTESQVGKIPDDKIKEFFTKNNIN”, for which the “total protein half-life in vivo” value is, setting by setting: under setting [1], 5.36 h; under setting [2], 4.62 h; under setting [3], 5.48 ± 0.069 h; under setting [4], 2.94 h; under setting [5], 4.97 ± 0.76 h; under setting [6], 10.6 ± 0.83 h. Also, the “total protein half-life in vivo” value reads like this: under setting [7], 5.04 h; under setting [8], 7.86 h; under setting [9], 5.56 ± 0.71 h; under setting [10], 11.3 ± 1.6 h.

For “MRHSLPYRMLRKRPMKLSTTVILMVSAVLFSVLLVVHLIYFSQISDMTRDGLANKALAVARTLADSPEIRQGLQKKPQESGIQAIAEAVRKRNDLLFIVVTDMQSLRYSHPEAQRIGQPFKGDDILKALNGEENVAINRGFLAQALRVFTPIYDENHKQIGVVAIGLELSRVTQQINDSRWSIIWSVLFGMLVGLIGTCILVKVLKKILFGLEPYEISTLFEQRQAMLQSIKEGVVAVDDRGEVTLINDAAQELLNYRKSQDDEKLSTLSHSWSQVVDVSEVLRDGTPRRDEEITIKDRLLLINTVPVRSNGVIIGAISTFRDKTEVRKLMQRLDGLVNYADALRERSHEFMNKLHVILGLLHLKSYKQLEDYILKTANNYQEEIGSLLGKIKSPVIAGFLISKINRATDLGHTLILNSESQLPDSGSEDQVATLITTLGNLIENALEALGPEPGGEISVTLHYRHGWLHCEVNDDGPGIAPDKIDHIFDKGVSTKGSERGVGLALVKQQVENLGGSIAVESEPGIFTQFFVQIPWDGERSNR [P0AEC8]”, the “total protein half-life in vivo” value reads like this: under setting [1], 6.93 ± 0.11 h; under setting [11], 6.33 h; under setting [2], 5.74 ± 0.12 h; under setting [12], 5.85 ± 0.23 h; under setting [3], 5.57 ± 0.62 h; under setting [4], 2.98 ± 0.12 h. For the same sequence, the “total protein half-life in vivo” value by setting is: under setting [5], 5.883 ± 0.049 h; under setting [6], 11.9 ± 0.56 h; under setting [7], 6.25 ± 0.84 h; under setting [8], 9.85 ± 3 h; under setting [9], 6.32 h; under setting [10], 11.6 ± 0.52 h.

In the case of “MEIIMRNLCFLLTLVATLLLPGRLIAAALPQDEKLITGQLDNGLRYMIYPHAHPKDQVNLWLQIHTGSLQEEDNELGVAHFVEHMMFNGTKTWPGNKVIETFESMGLRFGRDVNAYTSYDETVYQVSLPTTQKQNLQQVMAIFSEWSNAATFEKLEVDAERGVITEEWRAHQDAKWRTSQARRPFLLANTRNLDREPIGLMDTVATVTPAQLRQFYQRWYQPNNMTFIVVGDIDSKEALALIKDNLSKLPANKAAENRVWPTKAENHLRFNIINDKENRVNGIALYYRLPMVQVNDEQSFIEQAEWSMLVQLFNQRLQERIQSGELKTISGGTARSVKIAPDYQSLFFRVNARDDNMQDAANALMAELATIDQHGFSAEELDDVKSTRLTWLKNAVDQQAERDLRMLTSRLASSSLNNTPFLSPEETYQLSKRLWQQITVQSLAEKWQQLRKNQDAFWEQMVNNEVAAKKALSPAAILALEKEYANKKLAAYVFPGRNLSLTVDADPQAEISSKETLAENLTSLTLSNGARVILAKSAGEEQKLQIIAVSNKGDLSFPAQQKSLIALANKAVSGSGVGELSSSSLKRWSAENSVTMSSKVSGMNTLLSVSARTNNPEPGFQLINQRITHSTINDNIWASLQNAQIQALKTLDQRPAEKFAQQMYETRYADDRTKLLQENQIAQFTAADALAADRQLFSSPADITFVIVGNVAEDKLVALITRYLGSIKHSDSPLAAGKPLTRATDNASVTVKEQNEPVAQVSQWKRYDSRTPVNLPTRMALDAFNVALAKDLRVNIREQASGAYSVSSRLSVDPQAKDISHLLAFTCQPERHDELLTLANEVMVKRLAKGISEQELNEYQQNVQRSLDIQQRSVQQLANTIVNSLIQYDDPAAWTEQEQLLKQMTVENVNTAVKQYLSHPVNTYTGVLLPK”, the “total protein half-life in vivo” value is, setting by setting: under setting [1], 4.62 ± 0.69 h; under setting [11], 5.77 ± 0.74 h; under setting [2], 4.77 ± 1.3 h; under setting [12], 5.5 h; under setting [3], 4.55 ± 0.17 h; under setting [4], 2.905 ± 0.0097 h. Besides, the “total protein half-life in vivo” value under setting [5] is 5.9 ± 0.39 h; the “total protein half-life in vivo” value under setting [6] was 10.2 ± 0.87 h; the “total protein half-life in vivo” value under setting [7] was 5.41 ± 0.45 h; the “total protein half-life in vivo” value under setting [8] was found to be 9.96 ± 0.61 h; the “total protein half-life in vivo” value under setting [9] was 4.84 ± 0.2 h; the “total protein half-life in vivo” value under setting [10] was found to be 9.3 ± 0.6 h.

On to “MKKLINDVQDVLDEQLAGLAKAHPSLTLHQDPVYVTRADAPVAGKVALLSGGGSGHEPMHCGYIGQGMLSGACPGEIFTSPTPDKIFECAMQVDGGEGVLLIIKNYTGDILNFETATELLHDSGVKVTTVVIDDDVAVKDSLYTAGRRGVANTVLIEKLVGAAAERGDSLDACAELGRKLNNQGHSIGIALGACTVPAAGKPSFTLADNEMEFGVGIHGEPGIDRRPFSSLDQTVDEMFDTLLVNGSYHRTLRFWDYQQGSWQEEQQTKQPLQSGDRVIALVNNLGATPLSELYGVYNRLTTRCQQAGLTIERNLIGAYCTSLDMTGFSITLLKVDDETLALWDAPVHTPALNWGK”, for which the “total protein half-life in vivo” value is, setting by setting: under setting [1], 5.88 ± 0.29 h; under setting [11], 5.22 ± 0.51 h; under setting [2], 5.21 ± 0.23 h; under setting [3], 5.33 ± 0.57 h; under setting [4], 2.78 ± 0.28 h; under setting [5], 5.7 ± 0.2 h. For the same sequence, the “total protein half-life in vivo” value is, setting by setting: under setting [6], 10.4 ± 0.73 h; under setting [7], 5.72 ± 0.15 h; under setting [8], 10.3 ± 1.2 h; under setting [9], 5.75 ± 0.93 h; under setting [10], 12.5 ± 0.43 h.

“MDQIRLTHLRQLEAESIHIIREVAAEFSNPVMLYSIGKDSSVMLHLARKAFYPGTLPFPLLHVDTGWKFREMYEFRDRTAKAYGCELLVHKNPEGVAMGINPFVHGSAKHTDIMKTEGLKQALNKYGFDAAFGGARRDEEKSRAKERIYSFRDRFHRWDPKNQRPELWHNYNGQINKGESIRVFPLSNWTEQDIWQYIWLENIDIVPLYLAAERPVLERDGMLMMIDDNRIDLQPGEVIKKRMVRFRTLGCWPLTGAVESNAQTLPEIIEEMLVSTTSERQGRVIDRDQAGSMELKKRQGYF”: the “total protein half-life in vivo” value was 5.8 ± 1.9 h under setting [1]; 3.7 ± 0.045 h under setting [11]; 1.49 ± 0.57 h under setting [2]; 1.35 ± 0.17 h under setting [12]; 1.29 ± 0.12 h under setting [3]; 1.58 ± 0.062 h under setting [4]. Also, the “total protein half-life in vivo” value is, setting by setting: under setting [5], 1.94 ± 0.21 h; under setting [6], 2.88 ± 0.15 h; under setting [7], 1.206 ± 0.0024 h; under setting [8], 1.44 ± 0.29 h; under setting [9], 1.46 ± 0.23 h; under setting [10], 2.57 ± 0.54 h.

The values are drawn from the supplement of paper PMC11246515.
